Test results taken from US20210380699A1 (published 2021).

B1: 1D05 V to A & F to S change in VH (Seq ID No: 342), IgG1 disabled (LAGA), with 1D05 kappa (antibody, V domains shown)
VH: EVQLVESGGGLVQPGRSLRLSCAASGFTFDDYAMHWVRQAPGKGLEWVSGISWIRTGIGYADSVKGRFTISRDNAKNSLYLQMNSLRAEDTALYYCAKDMKGSGTYGGWFDTWGQGTLVTVSS
VL: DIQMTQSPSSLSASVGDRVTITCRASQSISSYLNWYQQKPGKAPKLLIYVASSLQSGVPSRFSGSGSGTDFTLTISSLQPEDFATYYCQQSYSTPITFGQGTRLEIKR
notes: Entry 342 is a whole heavy chain; also called 1D05 HC mutant 4
B2: 1D05 V to A & F to S change in VH (Seq ID No: 342), IgG1 disabled (LAGA), with 1D05 kappa V to A change (Seq ID No: 50) (antibody, V domains shown)
VH: EVQLVESGGGLVQPGRSLRLSCAASGFTFDDYAMHWVRQAPGKGLEWVSGISWIRTGIGYADSVKGRFTISRDNAKNSLYLQMNSLRAEDTALYYCAKDMKGSGTYGGWFDTWGQGTLVTVSS
VL: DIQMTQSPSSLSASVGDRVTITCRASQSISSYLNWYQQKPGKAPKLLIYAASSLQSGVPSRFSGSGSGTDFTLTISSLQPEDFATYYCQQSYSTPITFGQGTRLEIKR
notes: See note of m60
B3: 1D05 F to S change in VH (Seq ID No: 48), IgG1 disabled (LAGA), with 1D05 kappa (antibody, V domains shown)
VH: EVQLVESGGGLVQPGRSLRLSCAASGFTFDDYAMHWVRQVPGKGLEWVSGISWIRTGIGYADSVKGRFTISRDNAKNSLYLQMNSLRAEDTALYYCAKDMKGSGTYGGWFDTWGQGTLVTVSS
VL: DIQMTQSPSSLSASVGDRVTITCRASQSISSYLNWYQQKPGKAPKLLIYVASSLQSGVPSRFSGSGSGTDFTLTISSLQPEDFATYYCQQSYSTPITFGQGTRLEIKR
notes: Entry 48 is a whole heavy chain; also called 1D05 HC mutant 2
B4: 1D05 V to A change in VH (Seq ID No: 47), IgG1 disabled (LAGA), with 1D05 kappa V to A change (Seq ID No: 50) (antibody, V domains shown)
VH: EVQLVESGGGLVQPGRSLRLSCAASGFTFDDYAMHWVRQAPGKGLEWVSGISWIRTGIGYADSVKGRFTIFRDNAKNSLYLQMNSLRAEDTALYYCAKDMKGSGTYGGWFDTWGQGTLVTVSS
VL: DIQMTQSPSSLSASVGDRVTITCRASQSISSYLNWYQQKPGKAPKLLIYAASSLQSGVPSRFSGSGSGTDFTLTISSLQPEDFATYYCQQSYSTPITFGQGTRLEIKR
notes: See note of m58
B5: 1D05 V to A change in VH (Seq ID No: 47), IgG1 disabled (LAGA), with 1D05 kappa (antibody, V domains shown)
VH: EVQLVESGGGLVQPGRSLRLSCAASGFTFDDYAMHWVRQAPGKGLEWVSGISWIRTGIGYADSVKGRFTIFRDNAKNSLYLQMNSLRAEDTALYYCAKDMKGSGTYGGWFDTWGQGTLVTVSS
VL: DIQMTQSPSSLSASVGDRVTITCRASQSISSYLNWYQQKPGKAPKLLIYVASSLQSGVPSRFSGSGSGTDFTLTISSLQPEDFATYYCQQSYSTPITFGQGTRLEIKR
notes: Listing entry 47 is a whole heavy chain said to carry the IgG1 disabled (LAGA) constant region; also called 1D05 HC mutant 1
B6: 1D05 F to S change in VH (Seq ID No: 48), IgG1 disabled (LAGA), with 1D05 kappa V to A change (Seq ID No: 50) (antibody, V domains shown)
VH: EVQLVESGGGLVQPGRSLRLSCAASGFTFDDYAMHWVRQVPGKGLEWVSGISWIRTGIGYADSVKGRFTISRDNAKNSLYLQMNSLRAEDTALYYCAKDMKGSGTYGGWFDTWGQGTLVTVSS
VL: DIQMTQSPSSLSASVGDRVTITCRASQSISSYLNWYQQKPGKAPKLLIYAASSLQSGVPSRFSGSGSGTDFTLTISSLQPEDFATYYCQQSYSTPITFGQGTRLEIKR
notes: See note of m59
B7: 1D05 - IgG1 disabled (LAGA) with 1D05 kappa, V to A change (Seq ID No: 50) (antibody, V domains shown)
VH: EVQLVESGGGLVQPGRSLRLSCAASGFTFDDYAMHWVRQVPGKGLEWVSGISWIRTGIGYADSVKGRFTIFRDNAKNSLYLQMNSLRAEDTALYYCAKDMKGSGTYGGWFDTWGQGTLVTVSS
VL: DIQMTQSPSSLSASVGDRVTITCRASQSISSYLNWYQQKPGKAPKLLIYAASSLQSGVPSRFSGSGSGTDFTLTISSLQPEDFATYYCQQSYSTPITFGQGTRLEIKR
notes: also called 1D05 LC mutant 1
B8: 389A03 (antibody, human IgG1, kappa, V domains shown)
VH: QLQESGPGLVKPSETLSLTCTVSGGSISSSSYYCGWIRQPPGKGLDWIGSIYSTGYTYYNPSLKSRVTISIDTSKNQFSCLILTSVTAADTAVYYCAISTAAGPEYFHRWGQGTLVTVSS
VL: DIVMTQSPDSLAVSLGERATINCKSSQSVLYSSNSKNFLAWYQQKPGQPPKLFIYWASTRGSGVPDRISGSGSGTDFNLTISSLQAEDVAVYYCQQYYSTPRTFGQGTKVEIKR
B9: 413D08 (antibody, human IgG1, kappa, V domains shown)
VH: QVQLVESGGGVVQPGRSLRLSCAASGFTFRIYGMHWVRQAPGKGLEWVAVIWYDGSNKYYADSVKGRFTISRDNSDNTLYLQMNSLRAEDTAVYYCARDMDYFGMDVWGQGTTVTVSS
VL: DLQMTQSPSSLSASVGDRVTITCRASQGIRNDLGWYQQKPGKAPKRLIYAASSLQSGVPSRFSGSGSGTEFTLTISSLQPEDFATYYCLQHNSYPRTFGQGTKVEIKR
B10: 411B08 (antibody, human IgG1, kappa, V domains shown)
VH: EVQLVESGGGLVQPGGSLRLSCAASGFTFSSYWMSWVRQAPGKGLEWVANIKEDGSEKYYVDSVKGRFTISRDNAKNSLYLQMNSLRAEDTSVYYCARNRLYSDFLDNWGQGTLVTVSS
VL: DIQMTQSPSSVSASVGDRVTITCRASQGVSSWLAWYQQKSGKAPKLLIYGASSLQSGVPSRFSGSGSGTEFILTISSLQPEDFATYYCQQANSIPFTFGPGTKVDIKR
B11: 385F01 (antibody, human IgG1, kappa, V domains shown)
VH: EVQLVESGGGLVQPGGSLRLSCAASGFTFSSYWMSWVRQAPGKGLEWVANIKEDGSEKYYVDSVKGRFTISRDNAKNSLYLQMNSLRAEDTSVYYCARNRLYSDFLDNWGQGTLVTVSS
VL: DIQMTQSPSSVSASVGDRVTITCRASQGVSSWLAWYQQKSGKAPKLLIYGASSLQSGVPSRFSGSGSGTEFILTISSLQPEDFATYYCQQANSIPFTFGPGTKVDIKR
B12: 411C04 (antibody, human IgG1, kappa, V domains shown)
VH: EVQLVDSGGGLVQPGGSLRLSCAASGFTFSSYWMSWVRQAPGKGLEWVANIKEDGSEKYYVDSLKGRFTISRDNAKNSLYLQMNSLRAEDTSVYYCARVRLYSDFLDYWGQGTLVTVSS
VL: DIQMTQSPSSVSASVGDRVTITCRASQGVSSWLAWYQQKSGKAPKLLIYGASSLQSGVPSRFSGSGSGTEFILSISSLQPEDFATYYCQQANSIPFTFGPGTKVDIKR
B13: 411D07 (antibody, human IgG1, kappa, V domains shown)
VH: QVQLQESGPGLVKPSGTLSLTCIVSGGSIISSDWWNWVRQPPGKGLEWIGEIFHSGRTNYNPSLKSRVTISIDKSKNQFSLRLSSVTAADTAVYYCARDGSGSYWGQGTLVTVSS
VL: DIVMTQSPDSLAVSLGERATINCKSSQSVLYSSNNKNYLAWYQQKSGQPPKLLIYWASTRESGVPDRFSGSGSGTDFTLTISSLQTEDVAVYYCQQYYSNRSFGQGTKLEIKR
B14: 386H03 (antibody, human IgG1, kappa, V domains shown)
VH: QVQLQESGPGLVKPSGTLSLTCAVSGGSISSSDWWSWVRQPPGKGLEWIGEIFHSGNTNYNPSLKSRVTISVDKSKNQISLRLNSVTAADTAVYYCVRDGSGSYWGQGTLVTVSS
VL: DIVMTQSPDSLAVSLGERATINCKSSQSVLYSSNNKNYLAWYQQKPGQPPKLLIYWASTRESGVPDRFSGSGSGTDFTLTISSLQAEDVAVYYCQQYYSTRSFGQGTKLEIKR
B15: 416E01 (human IgG1) (antibody, V domains shown)
VH: EVQLAESGGGLVQPGGSLRLSCAASGFTFSNYAMSWVRQTPGKGLEWVSAISFSGGTTYYADSVKGRFTISRDNSKNTLYLHMNSLRADDTAVYYCAKDEAPAGATFFDSWGQGTLVTVSS
VL: DIQMTQSPSSVSASVGDRVTITCRASQGIRRWLAWYQQKPGKAPKLLISGASSLQSGVPSRFSGSGSGTDFTLIITSLQPEDFATYYCQQANSFPITFGQGTRLEIKR

Experiments:
[1] = target: T1, Human PD-L1 His (human PD-L1 ECD with C-terminal His tag) (human, UniProt Q9NZQ7 19-238); assay: SPR 25C, antibody captured, PD-L1 analyte
T1 construct: Biotinylated in ELISA and AlphaScreen assays; also called hPD-L1-his; biotinylated PD-L1 his

[2] = target: T1, Human PD-L1 His (human PD-L1 ECD with …); assay: ELISA, biotin-PD-L1 to plate-bound CD80, antibody titrated
Procedure: (§1) Excess protein was removed by washing with PBS-Tween (0.1% v/v) and the wells were blocked with 1% w/v bovine serum albumin (BSA, Sigma) in PBS for 1 hour at room temperature, after which plates were washed with PBS-Tween as above. 60 μL of a titration (three-fold serial dilution) of antibody was added to a 96-well, non-binding plate diluted in ELISA assay buffer (PBS +0.1% BSA). […] The plate was incubated for 30 minutes before transferring 50 μL to the coated plates. The coated plates were incubated for 1 hour at room temperature. Excess protein was removed by washing with PBS-Tween (0.1% v/v). PD-L1 binding was detected using streptavidin labelled europium (Perkin Elmer) diluted 1/1000 in DELFIA assay buffer (Perkin Elmer). The plates were washed with TBS (Tris buffered saline)-Tween (0.1% v/v) and 50 μL/well of DELFIA Enhancement solution (Perkin Elmer) was added to the plate. Time-resolved fluorescence was measured at 615 nm on an Envision plate reader (PerkinElmer). Percentage specific binding was calculated as defined in Equation 3. IC50 values were determined using GraphPad Prism software by curve fitting using a four-parameter logistic equation (Equation 4). Values for KM121 antibodies are a mean of three independent experiments. Values for KM122 are from a single experiment.

[3] = target: T1, Human PD-L1 His (human PD-L1 ECD with …); assay: ELISA, biotin-PD-L1 to plate-bound PD-1, antibody titrated
Procedure: as §1

[4] = target: T2, Human PD-L1 expressed on cells (human, UniProt Q9NZQ7 19-290); assay: flow cytometry on CHO hPD-L1 cells, competitor biotin-CD80-Fc, n = 2
T2 construct: One entry used for transfected and natively expressing cells; also called CHO-S hPD-L1; CHO human PD-L1
Procedure: (§2) 150 μL FACS buffer is added and cells washed as described above. […] Cells are incubated at 4° C. for 60 minutes. Cells are washed twice with 150 μL FACS buffer, centrifuging at 300 g for 3 minutes after each wash step and aspirating supernatant. Cells are fixed, washed and resuspended for analysis as above. APC signal intensity (geometric mean) is measured by flow cytometry using a Beckman Coulter CYTOFLEX instrument. Data is plotted as percentage of receptor binding.
(§3) All other steps are performed as per plate 2.

[5] = target: T2, Human PD-L1 expressed on cells; assay: flow cytometry on CHO hPD-L1 cells, competitor biotin-CD80-Fc, n = 1
Procedure: as §2, §3

[6] = target: T2, Human PD-L1 expressed on cells; assay: cell-based or functional assay
[7] = target: T2, Human PD-L1 expressed on cells; assay: cell-based or functional assay; remark: listed apart in the source
[8] = target: T2, Human PD-L1 expressed on cells; assay: cell-based or functional assay; remark: listed apart in the source
[9] = target: T2, Human PD-L1 expressed on cells; assay: flow cytometry on CHO hPD-L1 cells, competitor biotin-PD-1-Fc, n = 2
Procedure: as §2

[10] = target: T3, Mouse PD-L1 ECD His (mouse, UniProt Q9EP73 19-239); assay: SPR 25C and 37C
T3 construct: also called mouse PD-L1 (his-tagged)

[11] = target: T1, Human PD-L1 His (human PD-L1 ECD with …); assay: SPR 25C, antibody captured, PD-L1 analyte; remark: listed apart in the source
Procedure: (§4) Label-free surface plasmon resonance (SPR) analysis was carried out on the ProteOn XPR36 (BioRad) array SPR machine. An anti-human IgG capture surface was created on a GLC biosensor chip using a combination of anti-human Fc antibodies (Jackson Labs 09-005-008,109-006-008 and 309-006-008) by amine coupling. […] The data was analysed using the 1:1 model inherent to the ProteOn XPR36 analysis software.

[12] = target: T4, Cyno PD-L1 FLAG (cynomolgus PD-L1 ECD with FLAG tag) (cynomolgus monkey); assay: SPR 25C, antibody captured, PD-L1 analyte
T4 construct: also called cynomolgus monkey PD-L1-FLAG
Procedure: as §4

[13] = target: T1, Human PD-L1 His (human PD-L1 ECD with …); assay: SPR 37C, antibody captured, PD-L1 analyte
[14] = target: T4, Cyno PD-L1 FLAG (cynomolgus PD-L1 ECD …); assay: SPR 37C, antibody captured, PD-L1 analyte
[15] = target: T2, Human PD-L1 expressed on cells; assay: flow cytometry on CHO hPD-L1 cells, competitor biotin-PD-1-Fc, n = 1
Procedure: as §2

T2 sequence (Q9NZQ7 19-290 limits assumed): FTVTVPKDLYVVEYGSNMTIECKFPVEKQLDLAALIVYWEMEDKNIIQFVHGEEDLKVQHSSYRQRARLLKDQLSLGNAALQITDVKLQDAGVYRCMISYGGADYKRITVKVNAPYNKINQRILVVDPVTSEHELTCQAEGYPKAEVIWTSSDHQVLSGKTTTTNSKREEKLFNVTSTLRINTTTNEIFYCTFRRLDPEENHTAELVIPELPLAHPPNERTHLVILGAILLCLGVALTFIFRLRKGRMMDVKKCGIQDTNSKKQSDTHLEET
T1 sequence (Q9NZQ7 19-238 limits assumed): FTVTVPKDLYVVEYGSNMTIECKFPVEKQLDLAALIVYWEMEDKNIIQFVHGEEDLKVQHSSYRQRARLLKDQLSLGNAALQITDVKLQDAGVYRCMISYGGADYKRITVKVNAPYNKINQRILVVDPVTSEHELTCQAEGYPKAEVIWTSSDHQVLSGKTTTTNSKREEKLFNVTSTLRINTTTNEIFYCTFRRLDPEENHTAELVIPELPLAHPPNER
T4 sequence (chain, as listed by the source limits assumed): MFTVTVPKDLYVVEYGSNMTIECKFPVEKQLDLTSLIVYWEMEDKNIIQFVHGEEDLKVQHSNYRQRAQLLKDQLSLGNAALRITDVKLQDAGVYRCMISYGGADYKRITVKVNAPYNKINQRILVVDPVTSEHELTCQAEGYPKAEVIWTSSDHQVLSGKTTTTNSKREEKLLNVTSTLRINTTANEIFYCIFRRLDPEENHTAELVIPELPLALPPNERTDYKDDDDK
T3 sequence (Q9EP73 other isoform, or with tags, fused parts or gaps): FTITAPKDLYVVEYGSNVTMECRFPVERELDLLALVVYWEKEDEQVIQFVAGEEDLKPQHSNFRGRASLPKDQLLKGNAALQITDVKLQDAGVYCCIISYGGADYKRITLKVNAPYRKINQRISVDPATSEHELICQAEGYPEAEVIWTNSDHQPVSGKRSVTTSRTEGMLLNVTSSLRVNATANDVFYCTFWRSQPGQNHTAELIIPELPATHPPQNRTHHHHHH

Binder	Kd [1] [nM]	IC50 [2] [nM]	IC50 [3] [nM]	other results
B1	0.23			
B2	1.94			
B3	0.23			
B4	2.8			
B5	0.33			
B6	1.94			
B7	2.66			
B8		13.2		
B9		0.67	1.2	
B10		1.6	2.22	
B11		1.76	2.25	
B12		1.93	2.45	
B13		9.06		
B14		0.74		
B15		0.98	1.72	IC50 [4]: 0.89 nM; IC50 [5]: 1.04 nM; EC50, ADCC reporter assay, n = 1 [6]: 0.08 nM; EC50, ADCC reporter assay, n = 2 [6]: 0.0106 nM; EC50, ADCC reporter assay, n = 3 [6]: 0.0229 nM; max fold induction, ADCC reporter assay, n = 1 [6]: 32.1 fold; max fold induction, ADCC reporter assay, n = 2 [6]: 33.8 fold; max fold induction, ADCC reporter assay, n = 3 [6]: 60.2 fold; EC50, IL-2 induction, murine T cell hybridoma assay, n = 1 [7]: 0.19 nM; EC50, IL-2 induction, murine T cell hybridoma assay, n = 2 [7]: 0.15 nM; EC50, IL-2 induction, murine T cell hybridoma assay, n = 3 [7]: 0.14 nM; mean EC50, IFNγ induction, monocyte-T cell co-culture [8]: 0.064 nM; mean fold increase IFNγ, monocyte-T cell co-culture [8]: 2.23 fold; IC50 [9]: 0.89 nM; binding result [10]: no binding; Kd [11]: 0.193 nM; Kd [12]: 0.411 nM; Kd [13]: 0.511 nM; Kd [14]: 0.998 nM; IC50 [15]: 0.81 nM
